Laboratory results published in PMC13134614, “In vitro liquid-liquid phase separation induced by respiratory syncytial virus proteins and RNA” (Science Advances, 2025).

What was measured:
[1] = biological target: T1, RSV nucleoprotein N fused to mCherry (N-mCherry), N rings (respiratory syncytial virus (RSV), UniProt P03418 1-391); assay: microfluidic diffusional sizing (MDS); 0.5 μM N-mCherry with increasing concentrations of unlabeled P or P domains, incubated 30 min in the dark; 150 mM NaCl, 20 mM tris pH 7.4; hydrodynamic radius of N in triplicate, Fluidity One-M; conditions: both partners purified
T1 construct: Nucleoprotein N of respiratory syncytial virus, 391 residues; from the plasmid pET-mCherry-N; The results call the sample of the MDS experiment 'N rings' (N-RNA oligomers holding bacterial RNA); The plasmid is named pET-mCherry-N, the methods of MDS say 'N-mCherry', so the end of mCherry is open; source: E. coli BL21 (DE3), purified (gel filtration)
T1 sequence (looked up): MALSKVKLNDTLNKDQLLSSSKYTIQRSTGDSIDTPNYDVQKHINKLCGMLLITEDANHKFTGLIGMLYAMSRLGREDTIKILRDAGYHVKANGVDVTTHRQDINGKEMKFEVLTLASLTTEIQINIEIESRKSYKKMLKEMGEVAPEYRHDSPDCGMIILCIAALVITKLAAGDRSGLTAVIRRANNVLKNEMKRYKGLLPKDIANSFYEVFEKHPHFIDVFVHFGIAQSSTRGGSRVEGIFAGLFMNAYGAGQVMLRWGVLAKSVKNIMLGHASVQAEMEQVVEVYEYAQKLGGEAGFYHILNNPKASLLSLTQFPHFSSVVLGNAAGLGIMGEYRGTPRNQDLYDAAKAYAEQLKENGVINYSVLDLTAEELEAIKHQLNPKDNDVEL

M2-1 [2] = biological target: T2, M2-1 (Respiratory syncytial virus, UniProt P04545 1-194); assay: EMSA (native agarose gel, Amido black protein stain); 10 uM protein, 15 uM RNA; clear band shift; EMSA: 20 mM Tris pH 8, 150 mM NaCl, 30 min room temperature, 1% native agarose in 1X Tris-glycine; PhaseScan: 20 mM Tris-HCl pH 7.4, 150 mM NaCl, no crowding agent; conditions: protein: recombinant; tags: GST fusion vector pGEX-M2-1; chain copies: 4; single strand
T2 sequence: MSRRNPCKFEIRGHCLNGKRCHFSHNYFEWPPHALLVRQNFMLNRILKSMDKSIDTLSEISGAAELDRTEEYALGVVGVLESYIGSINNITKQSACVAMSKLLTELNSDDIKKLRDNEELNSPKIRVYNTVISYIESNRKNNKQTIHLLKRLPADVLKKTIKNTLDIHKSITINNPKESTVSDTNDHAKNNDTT

M2-1 [3] = biological target: T2, M2-1; assay: EMSA (native agarose gel, Amido black protein stain); 10 uM protein, 15 uM RNA; no band shift (none or too weak to detect); EMSA: 20 mM Tris pH 8, 150 mM NaCl, 30 min room temperature, 1% native agarose in 1X Tris-glycine; PhaseScan: 20 mM Tris-HCl pH 7.4, 150 mM NaCl, no crowding agent; conditions: protein: recombinant; tags: GST fusion vector pGEX-M2-1; chain copies: 4; single strand

B1: RSV phosphoprotein P residues 127-241 (domain or fragment, respiratory syncytial virus (RSV), UniProt P03421 127-241, looked up)
chain: TNDNITARLDRIDEKLSEILGMLHTLVVASAGPTSARDGIRDAMIGLREEMIEKIRTEALMTNDRLEAMARLRNEESEKMAKDTSDEVSLNPTSEKLNNLLEGNDSDNDLSLEDF
notes: Holds the tetramerization domain POD (131 to 151); source: E. coli BL21 (DE3), purified (gel filtration)
Q: B1 was tested. Which Kd [1] did it give?
A: Its Kd is 2600 ± 900 nM.

B2: 5' cap 7-mer RNA (ssRNA)
RNA: AGCGUAC
modifications: 5' cap (7mGppp, 2'-O-methyl on first nucleotide as generally described); cap G not counted in strand
Q: Does B2 bind (M2-1 [2])?
A: Result: binds

Q: Does AGCGUAC (ssRNA, 5' OH) [5' OH 7-mer RNA] bind (M2-1 [3])?
A: Result: no binding
